Reference: article PMC2141644 (The Journal of Cell Biology, 1997)

Biological target: F-actin (actin filaments) from rabbit skeletal muscle (rabbit, UniProt P68135 1-377)
Experiment: co-sedimentation

- Kd: ~2600 nM
- stoichiometry N: ~1.1 actin molecules per GST–abLIM monomer
B1: GST-dem (GST fused to abLIM amino acids 585-778) (domain or fragment)
chain: RSSGREEDDEELLRRRQLQEEQLMKLNSGLGQLILKEEMEKESRERSSLLASRYDSPINSASHIPSSKTASLPGYGRNGLHRPVSTDFAQYNSYGDVSGGVRDYQTLPDGHMPAMRMDRGVSMPNMLEPKIFPYEMLMVTNRGRNKILREVDRTRLERHLAPEVFREIFGMSIQEFDRLPLWRRNDMKKKAKLF
